# Source: patent US11130793B2, “GLP-1/GLP-2 dual agonists” (Zealand Pharma A/S, priority 2016, dated 2021)
# Square brackets hold non-standard residues; d marks the D form. Aib = CC(C)(N)C(=O)O
# T1: human GLP-2 receptor (hGLP2-R) (human, UniProt O95838)
# T1 sequence: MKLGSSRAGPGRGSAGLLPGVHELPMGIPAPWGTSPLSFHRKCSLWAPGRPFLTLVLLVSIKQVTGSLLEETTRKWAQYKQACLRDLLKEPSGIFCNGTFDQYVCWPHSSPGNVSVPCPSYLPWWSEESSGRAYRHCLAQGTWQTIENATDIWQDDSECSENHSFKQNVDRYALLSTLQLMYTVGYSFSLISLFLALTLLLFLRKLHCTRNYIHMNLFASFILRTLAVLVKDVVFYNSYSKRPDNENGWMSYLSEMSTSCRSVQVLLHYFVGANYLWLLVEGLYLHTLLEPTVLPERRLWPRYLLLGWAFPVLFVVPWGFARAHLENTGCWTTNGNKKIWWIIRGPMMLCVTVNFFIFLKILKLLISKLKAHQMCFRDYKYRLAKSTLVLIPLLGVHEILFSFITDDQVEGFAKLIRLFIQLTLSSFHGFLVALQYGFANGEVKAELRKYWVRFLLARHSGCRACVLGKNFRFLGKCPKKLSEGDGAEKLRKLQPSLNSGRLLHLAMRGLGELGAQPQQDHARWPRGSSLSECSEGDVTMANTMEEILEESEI
# Experiments:
# [1] = target: T1, human GLP-2 receptor (hGLP2-R); experiment: cell-based or functional assay
# [2] = target: human glucagon-like peptide 1 receptor (GLP-1R) (human, UniProt P43220); experiment: cell-based or functional assay
EC50 GLP-2 (nM); cAMP AlphaScreen [1] [nM],EC50 GLP-1 (nM); cAMP AlphaScreen [2] [nM],Binder
0.049,0.042,H-H[Aib]EGSFTSELATILDEQAARDFIAWLQAHKITD-OH (SMILES CC[C@H](C)[C@H](NC(=O)[C@H](Cc1ccccc1)NC(=O)[C@H](CC(=O)O)NC(=O)[C@H](CCCNC(=N)N)NC(=O)[C@H](C)NC(=O)[C@H](C)NC(=O)[C@H](CCC(N)=O)NC(=O)[C@H](CCC(=O)O)NC(=O)[C@H](CC(=O)O)NC(=O)[C@H](CC(C)C)NC(=O)[C@@H](NC(=O)[C@@H](NC(=O)[C@H](C)NC(=O)[C@H](CC(C)C)NC(=O)[C@H](CCC(=O)O)NC(=O)[C@H](CO)NC(=O)[C@@H](NC(=O)[C@H](Cc1ccccc1)NC(=O)[C@H](CO)NC(=O)CNC(=O)[C@H](CCC(=O)O)NC(=O)C(C)(C)NC(=O)[C@@H](N)Cc1c[nH]cn1)[C@@H](C)O)[C@@H](C)O)[C@@H](C)CC)C(=O)N[C@@H](C)C(=O)N[C@@H](Cc1c[nH]c2ccccc12)C(=O)N[C@@H](CC(C)C)C(=O)N[C@@H](CCC(N)=O)C(=O)N[C@@H](C)C(=O)N[C@@H](Cc1c[nH]cn1)C(=O)N[C@@H](CCCCN)C(=O)N[C@H](C(=O)N[C@H](C(=O)N[C@@H](CC(=O)O)C(=O)O)[C@@H](C)O)[C@@H](C)CC) [Compound 24]
0.036,0.014,H-H[Aib]EGSFTSELATILDEQAARDFIAWLIAHKITD-OH (SMILES CC[C@H](C)[C@H](NC(=O)[C@H](CC(C)C)NC(=O)[C@H](Cc1c[nH]c2ccccc12)NC(=O)[C@H](C)NC(=O)[C@@H](NC(=O)[C@H](Cc1ccccc1)NC(=O)[C@H](CC(=O)O)NC(=O)[C@H](CCCNC(=N)N)NC(=O)[C@H](C)NC(=O)[C@H](C)NC(=O)[C@H](CCC(N)=O)NC(=O)[C@H](CCC(=O)O)NC(=O)[C@H](CC(=O)O)NC(=O)[C@H](CC(C)C)NC(=O)[C@@H](NC(=O)[C@@H](NC(=O)[C@H](C)NC(=O)[C@H](CC(C)C)NC(=O)[C@H](CCC(=O)O)NC(=O)[C@H](CO)NC(=O)[C@@H](NC(=O)[C@H](Cc1ccccc1)NC(=O)[C@H](CO)NC(=O)CNC(=O)[C@H](CCC(=O)O)NC(=O)C(C)(C)NC(=O)[C@@H](N)Cc1c[nH]cn1)[C@@H](C)O)[C@@H](C)O)[C@@H](C)CC)[C@@H](C)CC)C(=O)N[C@@H](C)C(=O)N[C@@H](Cc1c[nH]cn1)C(=O)N[C@@H](CCCCN)C(=O)N[C@H](C(=O)N[C@H](C(=O)N[C@@H](CC(=O)O)C(=O)O)[C@@H](C)O)[C@@H](C)CC) [Compound 1]
0.062,0.008,H-H[Aib]EGSFTSELATILDEQAARDFIAWLIAQKITD-OH (SMILES CC[C@H](C)[C@H](NC(=O)[C@H](CC(C)C)NC(=O)[C@H](Cc1c[nH]c2ccccc12)NC(=O)[C@H](C)NC(=O)[C@@H](NC(=O)[C@H](Cc1ccccc1)NC(=O)[C@H](CC(=O)O)NC(=O)[C@H](CCCNC(=N)N)NC(=O)[C@H](C)NC(=O)[C@H](C)NC(=O)[C@H](CCC(N)=O)NC(=O)[C@H](CCC(=O)O)NC(=O)[C@H](CC(=O)O)NC(=O)[C@H](CC(C)C)NC(=O)[C@@H](NC(=O)[C@@H](NC(=O)[C@H](C)NC(=O)[C@H](CC(C)C)NC(=O)[C@H](CCC(=O)O)NC(=O)[C@H](CO)NC(=O)[C@@H](NC(=O)[C@H](Cc1ccccc1)NC(=O)[C@H](CO)NC(=O)CNC(=O)[C@H](CCC(=O)O)NC(=O)C(C)(C)NC(=O)[C@@H](N)Cc1c[nH]cn1)[C@@H](C)O)[C@@H](C)O)[C@@H](C)CC)[C@@H](C)CC)C(=O)N[C@@H](C)C(=O)N[C@@H](CCC(N)=O)C(=O)N[C@@H](CCCCN)C(=O)N[C@H](C(=O)N[C@H](C(=O)N[C@@H](CC(=O)O)C(=O)O)[C@@H](C)O)[C@@H](C)CC) [Compound 25]
